Assay results as given in patent US20250134019A1, “TRIKETONE DIOXYGENASE VARIANTS FOR HERBICIDE TOLERANCE” (Monsanto Technology LLC, priority 2022, published 2025).

Tests used:
[1] = Enzyme activity (Kcat/Km) for hydroxylation of mesotrione at room temperature; format: biochemical; details: Round 2 high-throughput screens
Experimental: The enzyme activity was expressed as Kcat/Km, M-1 sec-1. […] The enzyme activity was measured at room temperature for the hydroxylation of mesotrione, and was defined as Kcat/Km, M-1 sec-1 (specificity constant). Of these variants, four were tested in soybean plants. […] TDO activity was measured by the second hydroxylation of mesotrione. For routine activity measurements of TDO and determining the kinetic properties of the second hydroxylation, the continuous change in […], which is specific to the second hydroxylation and subsequent non-enzymatic water removal (i.e. the conversion of hydroxy-mesotrione to oxy-mesotrione), was monitored. […] The reaction proceeded until the maximum […] was obtained (usually 20-120 minutes depending upon the concentration of mesotrione) and the linear portion of the curve was determined by visual inspection. […] The reaction mixtures were analyzed by HPLC and mass spectrophotometry. By product conversation followed by peak integration on HPLC, a linear plot was obtained and the extinction co-efficient delta between the substrate (mesotrione) and the second product (oxy-mesotrione) was obtained according to the equation […]=(εp-εs)*bΔp where […] is the change of absorbance at 330 nm and b is the light path.

[2] = system: transgenic soybean plants; test: Response of R0 soybean plants transformed with Round 2 TDO variants to mesotrione; format: in vivo; details: R0 transgenic soybean sprayed with mesotrione
Excerpt: The next set of experiments was focused on determining if the balance between improved enzyme stability could outweigh a reduction in activity observed at optimal temperatures in soybean plants. […] To test this hypothesis, the eight variants from Round 2 biochemical analysis described in the preceding paragraph were transformed into soybean through Agrobacterium-mediated transformation, along with three controls. One of the controls (TDO_9) was a variant from the high-throughput screens that had poor activity. Two other controls were the D08 variant and the Os.TDO. R0 transgenic soybean plants were sprayed with the mesotrione herbicide to screen for herbicide tolerance. […] These included the Os.TDO control, the D08 variant and one Round 2 variant. The plants were scored for percent injury as described in the previous examples.

B1: TDO_9: Os.TDO variant, SEQ ID NO:44, F199L-K279R relative to D08; control with poor activity (protein)
chain: MADESWRAPALVQELAAKGVEEPPSRYLLREQDRPDVKLVAAELPEPIPVVDLGRLDGAEEATKLRVALQNWGFFLLTNHGIEASLMDDVMNLSREFFNQPIERKQKFSNLIDGKHFQIEGYGTDRVVTQDQVLDWSDRLHLRVEPKEEQDLAFWPDHPESFRDVLHKYASGCKRIRDDIIQAMAKLLELDEDYFLDRLNEAPTFARFNYYPPCPRPDLVFGIRPHSDGGLLTILLVDKDVGGLQVQRDGKWSNVPATPHTLLINLGDTMEVMSNGIFRSPVHRVVTNAEKERISLAMLYSVNDEKDIEPAAGLLDENRPARYRKVSVEEFRAGIFGKFSRGERYIDSLRI
modifications: TDO variant sequence
activity in high-throughput screens [1]: poor activity | R0 % Injury [2]: 36%
